This is an account of results in patent publication US20110064726A1.

For assay [1], the target named is cynomolgus monkey IgE (cynomolgus monkey). As to the kind of experiment: capture ELISA, antibody coated; Test 2, Cyno 1 serum. A general note: In an ELISA, binding on a coated surface is turned into a signal by an enzyme label.
Assay [2] shares this target. The assay is described as follows: capture ELISA, antibody coated; Test 2, Cyno 2 serum.
The target is the same in assay [3]. As to the kind of experiment: capture ELISA, antibody coated; Test 1, Cyno 5 serum.
Assay [4] has the same target. As to the kind of experiment: capture ELISA, antibody coated; Test 1, Cyno 3 serum.
For assay [5] the target is unchanged. As to the kind of experiment: capture ELISA, antibody coated; Test 2, Cyno 3 serum.
Assay [6] shares this target. The assay is described as follows: capture ELISA, antibody coated; Test 1, Cyno 1 serum.
Assay [7] shares this target. The assay is described as follows: capture ELISA, antibody coated; Test 2, Cyno 5 serum.
Assay [8] has the same target. The assay is described as follows: capture ELISA, antibody coated; Test 1, Cyno 7 serum.
Assay [9] shares this target. As to the kind of experiment: capture ELISA, antibody coated; Test 1, Cyno 2 serum.
For assay [10] the target is unchanged. As to the kind of experiment: capture ELISA, antibody coated; Test 2, Cyno 7 serum.

Regarding E25 (omalizumab) (antibody), the IgE concentration detected in assay [1] worked out at 146 ng/mL; in [2], 104 ng/mL; in [3], 232 ng/mL; in assay [4], 166 ng/mL; in [5], 135 ng/mL; in assay [6] it was 172 ng/mL. The IgE concentration detected came out at 252 ng/mL in assay [7], 0 ng/mL in assay [8], 52 ng/mL in [9] and 0 ng/mL in [10].
